According to IntAct's records for PubMed 11641419:

B1: Prolactin-releasing peptide receptor (Homo sapiens), P49683 (parent)
chain: MASSTTRGPRVSDLFSGLPPAVTTPANQSAEASAGNGSVAGADAPAVTPFQSLQLVHQLKGLIVLLYSVVVVVGLVGNCLLVLVIARVRRLHNVTNFLIGNLALSDVLMCTACVPLTLAYAFEPRGWVFGGGLCHLVFFLQPVTVYVSVFTLTTIAVDRYVVLVHPLRRRISLRLSAYAVLAIWALSAVLALPAAVHTYHVELKPHDVRLCEEFWGSQERQRQLYAWGLLLVTYLLPLLVILLSYVRVSVKLRNRVVPGCVTQSQADWDRARRRRTFCLLVVIVVVFAVCWLPLHVFNLLRDLDPHAIDPYAFGLVQLLCHWLAMSSACYNPFIYAWLHDSFREELRKLLVAWPRKIAPHGQNMTVSVVI

Variants of: B1
Details: with grip1_human GRIP1, Q9Y3R0
Chain of grip1_human GRIP1, Q9Y3R0 (Q9Y3R0 whole entry): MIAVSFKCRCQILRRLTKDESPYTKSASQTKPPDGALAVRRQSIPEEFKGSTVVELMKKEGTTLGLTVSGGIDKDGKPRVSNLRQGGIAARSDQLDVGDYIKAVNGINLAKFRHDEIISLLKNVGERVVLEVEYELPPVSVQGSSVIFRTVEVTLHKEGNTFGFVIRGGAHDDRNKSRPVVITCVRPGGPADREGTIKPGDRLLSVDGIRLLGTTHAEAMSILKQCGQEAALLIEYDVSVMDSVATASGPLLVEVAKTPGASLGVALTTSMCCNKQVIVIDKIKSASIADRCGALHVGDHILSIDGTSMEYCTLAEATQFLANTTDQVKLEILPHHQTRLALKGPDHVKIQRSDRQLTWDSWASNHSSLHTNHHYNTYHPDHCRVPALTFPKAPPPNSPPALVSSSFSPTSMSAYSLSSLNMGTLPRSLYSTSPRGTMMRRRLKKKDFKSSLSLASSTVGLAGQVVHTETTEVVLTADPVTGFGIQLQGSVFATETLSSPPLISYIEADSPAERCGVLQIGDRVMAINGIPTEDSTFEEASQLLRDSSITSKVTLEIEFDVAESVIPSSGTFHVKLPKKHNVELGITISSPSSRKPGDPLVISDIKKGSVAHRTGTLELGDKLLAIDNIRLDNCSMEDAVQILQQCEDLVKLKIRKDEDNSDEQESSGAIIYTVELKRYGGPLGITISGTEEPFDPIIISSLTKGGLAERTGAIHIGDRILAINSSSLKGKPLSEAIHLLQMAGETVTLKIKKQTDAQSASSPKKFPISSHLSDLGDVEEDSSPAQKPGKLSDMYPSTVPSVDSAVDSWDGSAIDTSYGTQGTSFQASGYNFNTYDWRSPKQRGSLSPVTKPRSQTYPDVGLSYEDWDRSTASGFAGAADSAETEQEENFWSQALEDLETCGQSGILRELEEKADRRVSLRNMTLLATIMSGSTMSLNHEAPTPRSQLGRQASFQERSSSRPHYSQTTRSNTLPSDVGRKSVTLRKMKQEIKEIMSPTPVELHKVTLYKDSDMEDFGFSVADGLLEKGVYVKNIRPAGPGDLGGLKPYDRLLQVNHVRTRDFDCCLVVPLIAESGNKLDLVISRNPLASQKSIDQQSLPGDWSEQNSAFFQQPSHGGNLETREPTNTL

Effect of a mutation on the interaction, disrupting interaction:
MASSTTRGPRVSDLFSGLPPAVTTPANQSAEASAGNGSVAGADAPAVTPFQSLQLVHQLKGLIVLLYSVVVVVGLVGNCLLVLVIARVRRLHNVTNFLIGNLALSDVLMCTACVPLTLAYAFEPRGWVFGGGLCHLVFFLQPVTVYVSVFTLTTIAVDRYVVLVHPLRRRISLRLSAYAVLAIWALSAVLALPAAVHTYHVELKPHDVRLCEEFWGSQERQRQLYAWGLLLVTYLLPLLVILLSYVRVSVKLRNRVVPGCVTQSQADWDRARRRRTFCLLVVIVVVFAVCWLPLHVFNLLRDLDPHAIDPYAFGLVQLLCHWLAMSSACYNPFIYAWLHDSFREELRKLLVAWPRKIAPHGQNMTVSAVI [V368A]
MASSTTRGPRVSDLFSGLPPAVTTPANQSAEASAGNGSVAGADAPAVTPFQSLQLVHQLKGLIVLLYSVVVVVGLVGNCLLVLVIARVRRLHNVTNFLIGNLALSDVLMCTACVPLTLAYAFEPRGWVFGGGLCHLVFFLQPVTVYVSVFTLTTIAVDRYVVLVHPLRRRISLRLSAYAVLAIWALSAVLALPAAVHTYHVELKPHDVRLCEEFWGSQERQRQLYAWGLLLVTYLLPLLVILLSYVRVSVKLRNRVVPGCVTQSQADWDRARRRRTFCLLVVIVVVFAVCWLPLHVFNLLRDLDPHAIDPYAFGLVQLLCHWLAMSSACYNPFIYAWLHDSFREELRKLLVAWPRKIAPHGQNMTVAVVI [S367A]
MASSTTRGPRVSDLFSGLPPAVTTPANQSAEASAGNGSVAGADAPAVTPFQSLQLVHQLKGLIVLLYSVVVVVGLVGNCLLVLVIARVRRLHNVTNFLIGNLALSDVLMCTACVPLTLAYAFEPRGWVFGGGLCHLVFFLQPVTVYVSVFTLTTIAVDRYVVLVHPLRRRISLRLSAYAVLAIWALSAVLALPAAVHTYHVELKPHDVRLCEEFWGSQERQRQLYAWGLLLVTYLLPLLVILLSYVRVSVKLRNRVVPGCVTQSQADWDRARRRRTFCLLVVIVVVFAVCWLPLHVFNLLRDLDPHAIDPYAFGLVQLLCHWLAMSSACYNPFIYAWLHDSFREELRKLLVAWPRKIAPHGQNMTVSVVA [I370A]
